Here are results for one molecule from publication PMC8041823, “Structural comparison of Acinetobacter baumannii β-ketoacyl-acyl carrier protein reductases in fatty acid and aryl polyene biosynthesis” (Scientific Reports, 2021).

This assay has as its target T1, Acinetobacter baumannii ApeQ (β-ketoacyl-ACP reductase of the aryl polyene biosynthesis gene cluster) (Acinetobacter baumannii (clinical CRAB …)).
T1 construct: ApeQ of A. baumannii, amplified from genomic DNA of the clinical carbapenem-resistant strain C1 with primers designed on the A. baumannii ACICU genome; NCBI ACC55845.1; Cloned NdeI/XhoI into pET28a; His-tag removed with thrombin; Residues of the thrombin site may be left at the N-terminus; also called AbApeQ; source: E. coli BL21 (DE3), purified (Chelating Sepharose, thrombin, Q-Sepharose anion …)
The assay is described as follows: ITC; 2 mM holo ACP1 titrated into 0.1 mM reductase; 20 mM Tris pH 8, 100 mM NaCl, 2 mM NADPH; 25 °C; MicroCal 200. To be noted: both partners purified. A general note: In ITC the heat of successive injections is recorded.

B1: holo ACP1 (acyl carrier protein 1 of the A. baumannii aryl polyene biosynthesis gene cluster) (natural protein)
chain: MSNLADELKQMIIDVLALEDITIADIDTEAPLFGEGLGLDSIDALELGLALKKRYNIHLNAESDETKQHFKSIQSLVALVEAQQKS
modifications: holo form (phosphopantetheine arm; made by co-expression with holo-ACP synthase AbAcpS); residue not stated
On to B1, for which the Kd (as a rule, the free concentration of one partner at which half of the binding sites on the other are occupied at equilibrium, for simple one-to-one binding) was approximately 80 µM; the dH is 3.05 kcal/mol; the stoichiometry N (usually a count of units in the complex or per binding partner) was 1.11.
